The source of these data is patent publication US20070231333A1, “ANTI-5T4 ANTIBODIES AND USES THEREOF” (Wyeth, priority 2006, published 2007).

This assay has as its target T1, human 5T4 antigen (Homo sapiens, UniProt Q13641).
T1 sequence (Q13641 32-420): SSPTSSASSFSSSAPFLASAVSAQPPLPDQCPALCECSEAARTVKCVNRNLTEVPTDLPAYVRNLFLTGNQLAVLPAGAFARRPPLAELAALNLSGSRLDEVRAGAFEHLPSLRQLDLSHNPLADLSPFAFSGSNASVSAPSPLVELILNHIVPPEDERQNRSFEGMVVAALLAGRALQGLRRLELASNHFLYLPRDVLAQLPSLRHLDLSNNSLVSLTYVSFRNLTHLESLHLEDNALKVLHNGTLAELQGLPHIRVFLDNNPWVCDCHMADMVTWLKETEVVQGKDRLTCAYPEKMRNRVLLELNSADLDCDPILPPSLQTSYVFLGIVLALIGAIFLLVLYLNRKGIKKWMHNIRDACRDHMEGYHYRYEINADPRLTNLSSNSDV
In words: BIACORE analysis of antibody binding to human 5T4 antigen immobilized on a CM5 chip. As to conditions: chimeric and humanized antibodies, Table 12. How it is done:
To assess the binding specificity and affinity of the A1, A2, and A3 antibodies, BIACORE® analysis was performed using human 5T4 antigen immobilized on a CM5 chip. BIACORE® technology utilizes changes in the refractive index at the surface layer upon binding of the antibody to the 5T4 antigen immobilized on the layer. Binding is detected by surface plasmon resonance (SPR) of laser light refracting from the surface. Analysis of the signal kinetics on rate and off rate allows discrimination between non-specific and specific interactions. The H8 anti-5T4 antibody was used as a control. H8 is a hybridoma-generated monoclonal mouse IgG1 antibody described in PCT International Publication No. WO 98/55607 and in Forsberg et al. (1997) J. Biol. Chem. 272(19):[…].
To assess the binding specificity and affinity of the chimeric and humanized H8, A1, A2, and A3 antibodies, BIACORE® analysis was performed using human 5T4 antigen immobilized on a CM5 chip. See Example 2.
On the technique in general: SPR reads the build-up and loss of mass on a sensor chip optically.

B1: Chimeric A3 + C91Y: chimeric A3 antibody bearing C91Y mutation in the heavy chain variable region (antibody, V domains shown)
VH: EVQLVESGGGLVQPKGSLKLSCAASGFTFNTYAMNWVRQAPGKGLEWVARIRSKSNNYATYYADSVKDRFTISRDDSQSMLYLQMNNLKTEDTAMYYCVRQWDYDVRAMNYWGQGTSVTVSS
VL: DIVMTQSHIFMSTSVGDRVSITCKASQDVDTAVAWYQQKPGQSPKLLIYWASTRLTGVPDRFTGSGSGTDFTLTISNVQSEDLADYFCQQYSSYPYTFGGGTKLEIK
The Kd is the equilibrium constant for the complex coming apart. Read a high Kd as lower affinity. Consider B1, for which the “KA” value was found to be 1.7e+09 M⁻¹, binding was put at a Kd of 5.9 nM, the “ka” value was 27000 M⁻¹ s⁻¹ and the “kd” value was determined as 1.6e-05 s⁻¹.

B2: Chimeric A1 + C67F: chimeric A1 antibody bearing C67F mutation in the heavy chain variable region (antibody, V domains shown)
VH: QIQLVQSGPELKKPGETVKISCKASGYTFTNFGMNWVKQGPGEGLKWMGWINTNTGEPRYAEEFKGRFAFSLETTASTAYLQINNLKNEDTATYFCARDWDGAYFFDYWGQGTTLTVSS
VL: SIVMTQTPKFLLVSAGDRVTITCKASQSVSNDVAWYQQKPGQSPKLLINFATNRYTGVPNRFTGSGYGTDFTFTISTVQAEDLALYFCQQDYSSPWTFGGGTKLEIK
As to B2, the “KA” value amounted to 2.6e+09 M⁻¹, the “ka” value was determined as 170000 M⁻¹ s⁻¹ and the “kd” value was found to be 6.3e-05 s⁻¹.
